The values that follow come from a protein production outcome set (Wang et al. 2014).

This series can be described thus: label from the status in PepcDB records.
In the case of “MAYIYGFRTLDRRVFYLALSRLIRASGRVSSFIFLPLIFIEIYSISFLITGLILGSSAIAMAFVQYYSGRWTDRIGRRFFLIVIPIPAAVFYFLMFTTVYLHMSVILLIIFWYGTIITNSLQYPAIEASVADVTSTSERLSGYTLIRIMANLGAAVGPLAGGFLAGINFSYIFLLASIFTVIELFILYYNVRETFLPARAIAEKIKLKIFKTDRFFFLFTLVGVFLGFTLRQNGPTLTVYAFDLKNLPLMDIGYLYSLNGIVVIALQMPILRLMSSRSNPVFWRGIGTIYYSIGFVILGIAPTFLYILLAMFIFTVGEDFMSPTTQTIITTLAPAEKKGSYIGSYNLLTSFGRFFGTIFGLYFLFIYQKTTFTFWIIIATSTGVIGLLYIFMSESFIKRTSKIATLPGKA”, the protein production result is recorded as “failed”. To “MAYTIGVDFGTLSGRAVLVHVQTGEELAAAVKEYRHAVIDTVLPKTGQKLPRDWALQHPADYLEVLETTIPSLLEQTGVDPKDIIGIGIDFTACTILPIDSSGQPLCMLPEYEEEPHSYVKLWKHHAAQKHADRLNQIAEEEGEAFLQRYGGKISSEWMIPKVMQIAEEAPHIYEAADRIIEAADWIVYQLCGSLKRSNCTAGYKAMWSEKAGYPSDDFFEKLNPSMKTITKDKLSGSIHSVGEKAGSLTEKMAKLTGLLPGTAVAVANVDAHVSVPAVGITEPGKMLMIMGTSTCHVLLGEEVHIVPGMCGVVDNGILPGYAGYEAGQSCVGDHFDWFVKTCVPPAYQEEAKEKNIGVHELLSEKANHQAPGESGLLALDWWNGNRSTLVDADLTGMLLGMTLLTKPEEIYRALVEATAYGTRMIIETFKESGVPIEELFAAGGIAEKNPFVMQIYADVTNMDIKISGSPQAPALGSAIFGALAAGKEKGGYDDIKKAAANMGKLKDITYTPNAENAAVYEKLYAEYKELVHYFGKENHVMKRLKTIKNLQFSSAAKK” belongs “not failed”. As to “MAYTTTVKLDGDTKTYTLSPTVKKYTLMDLGFVKGRSGAFSFERSLDPTSPYQAAFKLKMTVNADLTGFKMTTVTGNGVQRANIFKNDAHPEAVEQLRYILANFIERDILTTD”, the protein production entry is “not failed”. As for “MCDAHLRGPSGIITSPNFPIQYDNNAHCVWIITALNPSKAGGDPGNIQCNKEGLSVETQSLRLRNRSCLLGNSKDNGCCVPNPVHGTGLQVIKLAFEEFDLERGYDTLTVGDGGQDGDQKTVLYILTGTSVPDLIVSTNHQMWLLFQTDGSGSSLGFKASYEEIEQGSCGDPGIPAYGRREGSRFHHGDTLKFECQPAFELVGQKAITCQKNNQWSAKKPGCVCK”, the entry is “failed”.

As for “MCDRHQKLIRATDKPNFFGIDHYGFPEAGEHPADPPGYYPEYFSSERFQRLGYHVEELRGGFYWVTSGGYDAAFVVTSDGVVAIDAPPTIGENMLAAIEDVTDKPVTHLIYSHWHTDHIGAASVFGPNVEIVAHDITKELLERFPDPNRPVPTVTFDKDHLLVVGGVTLELSYKGENHCPGNIFIYAPAQKVLTVIDIVSPGSATFMHCDASQNITGWYEAQKQLMEYEFDFLVAGHHMKYGTPETVAASIEYFQDVLDGAQAAVDRFSRSDALVSILEGAGWDQVFSGTENWINSMANFATKYVLEKKSSNGQLWSERLAGVTTQTKYHAYTVLESIRLERPRPNYRLRGENPPPFLT”, the protein production result is given as “failed”.

On to “MCDRTSKNENRILTISALLASGFAAGGMVLGLLVGSIVIVFDGVYSLVSLLLTLLSLAASSYISKPSKSVFPFGKAVLEPIVIAIKAAVILVVVCFSLYSAISALMTGGREVDTSIATIFGLVNVIGCGYAWWFMAKKSRRFSSGLIDAEKKQWQMDTLLSVAVTVGFIAAWLVSLTPFAHYAVYADPMMMLLMGFYFLKVPFDMLCGALRELLMMTPSKELCQVVGNDVLEIEKVSDHQLKLAGITKVGQELRVNIDLHVDDDMIELDTLEQTRKQLTTRLSKHRFKLQLNLNVANC”, for which the protein production entry is on record as “failed”. As for “MCFPYNKTVAMLAVLMLSGCEDQAALRNADNPPSPPAARMTEFGPGTEDATITQHPYMDNRHAINEGKRLYSWFNCTGCHAHGGGGMGPPLMDKQWIYGSEPAQIFASIMEGRPNGMPAFHGKIPEQEVWKIVAYVRSLGGLSKDLPAGASSRPLQEQAESDKREVKTP”, the entry is “failed”; as for “MCFSFIMPPAMADILDIWAVDSQIASDGSIPVDFLLPTGIYIQLEVPREATISYIKQMLWKQVHNYPMFNLLMDIDSYMFACVNQTAVYEELEDETRRLCDVRPFLPVLKLVTRSCDPGEKLDSKIGVLIGKGLHEFDSLKDPEVNEFRRKMRKFSEEKILSLVGLSWMDWLKQTYPPEHEPSIPENLEDKLYGGKLIVAVHFENCQDVFSFQVSPNMNPIKVNELAIQKRLTIHGKEDEVSPYDYVLQVSGRVEYVFGDHPLIQFQYIRNCVMNRALPHFILVECCKIKKMYEQEMIAIEAAINRNSSNLPLPLPPKKTRIISHVWENNNPFQIVLVKGNKLNTEETVKVHVRAGLFHGTELLCKTIVSSEVSGKNDHIWNEPLEFDINICDLPRMARLCFAVYAVLDKVKTKKSTKTINPSKYQTIRKAGKVHYPVAWVNTMVFDFKGQLRTGDIILHSWSSFPDELEEMLNPMGTVQTNPYTENATALHVKFPENKKQPYYYPPFDKIIEKAAEIASSDSANVSSRGGKKFLPVLKEILDRDPLSQLCENEMDLIWTLRQDCREIFPQSLPKLLLSIKWNKLEDVAQLQALLQIWPKLPPREALELLDFNYPDQYVREYAVGCLRQMSDEELSQYLLQLVQVLKYEPFLDCALSRFLLERALGNRRIGQFLFWHLRSEVHIPAVSVQFGVILEAYCRGSVGHMKVLSKQVEALNKLKTLNSLIKLNAVKLNRAKGKEAMHTCLKQSAYREALSDLQSPLNPCVILSELYVEKCKYMDSKMKPLWLVYNNKVFGEDSVGVIFKNGDDLRQDMLTLQMLRLMDLLWKEAGLDLRMLPYGCLATGDRSGLIEVVSTSETIADIQLNSSNVAAAAAFNKDALLNWLKEYNSGDDLDRAIEEFTLSCAGYCVASYVLGIGDRHSDNIMVKKTGQLFHIDFGHILGNFKSKFGIKRERVPFILTYDFIHVIQQGKTGNTEKFGRFRQCCEDAYLILRRHGNLFITLFALMLTAGLPELTSVKDIQYLKDSLALGKSEEEALKQFKQKFDEALRESWTTKVNWMAHTVRKDYRS”, “failed”; as for “MCLPIHVKYDWFCRLCKTGRTLRPTSLQRGRAMASLTLRHLAGNTWLIPAPAAIGVYVRNGRAVLIDSGNDEEAGRQILKLLNGQGWTLDLIVNTHSNADHIGGNAFLQKKTGCRVAATVPEAAFIANPILEPSFLYGGYPVKALRNKFLMAKPSTVTDIIEAIGPILDTGLEAVPLAGHFFGMIGIRTPDGVLFAADSLFPETILAKYPIFYLYDIREHLASLQRLRELEAAIYVPSHGAPSPEILPLIEANEQRVRQTVSFVESCCTDAPASFETVLERVCGEYGIVLDPNQYVLVGNTIRSILAFLSEEGRLAMIFDGGRLLWGTAADQREA”, “failed”. To “MCNAKDIYTAGWALVVMAGLVSLAIQVYLGYFRLDDMVKHLSRCRVIAIRMPLLGKDPLSRFFMLLCIGALFAMPHLFLRNGGLNVKDYRKFPLGLKWLINLFQFAALVAVIAFLVLWWVSRHL” belongs “failed”; to “MCPAVVPDDPHALTAPSPWVVRWAAPLPAGARVLDVACGSGRHVRWLAARGLRVTGIDRDADALSGLSEAADTLIADIEDGLWPLPAEAVFDAVVVTNYLYRPLWPRLLACVAPGGRLIYETFAVGNETVGKPSNPAFLLAPGELLEAVRGQLRVIGYEDGFIAAPREAYVQRLCAVRESAGAQARRYAL”, “failed”; to “MCPEFQRKAAGAPRMGAMLARCVLTAALALQAAAAARAVEIEIGVASRGVVDGLEFVQFSADERTMATTHWGNVVHLWDLKTLRVRSSVSVANRDFDFDLSPDGRALAVWNEEGKGEIELYDTDNGQPARALPAPRLPQGESRRGRSLVYRDDGTLEFVSHGWIGGHARKAYLLAVPAGQPRAAETPLPALVNSVAFRKSAVMDQGRLLLAGVDGADDELAIMDIASGRMLAREPGFRIASYAADARRAVFVEADGKQRILAFDFSSRSLSTLPRWTGSGKFQPYRFVAGTRFLVLAPDEPDASTRRAAPGIYDLQTRRLHRLPPDADPGSIDVWGATASYVLCNPDHTACQAEVADLAISRKLGTFAVQPSADFRTWISPSGSMVVVGGADDGTMMVWSVKEQRVIGPNLEHHHHHH”, “failed”. For the sequence “MCRNNREDIFNLVPINIISSKFHVKVIGGGKAATIKVKGLLEKGCYVHILSKEFSKEILDIENKNLKLEKGNYYKEFIKDAHLIIIAVNESSLVYKISKDCEKEYKLYLNAANYKEGMVAIPYSRCYENLGFSISSKLGSPRITRAIGEEVSNIIKENDIYSIKVAKIREKAKKEELKDNIIEIISSKEFKNAILEKREYEYLKNLLGEELANSLTLGLK”, the protein production entry was “failed”. To “MCSKQSANQQISYRQTAEATLDKGMDNQPEAPYWFPKQLLKWQLSKDKAAKYNTASVPLAKRIDKWQLPTVNKTQDPKMKVVALSIMNSSTSGNAPRGINTFDANVFSNWQYIDQLVYWGGSAGEGLIVPPTADVIDSAHKNGVPVLGTVFFPQVVSGGKLKWLNDFLKQDADGHFPMADKLVAVAKAYGFDGWFINQETDPEVKSFDSASTGKTATSSTSNGLSKKHAQLMQQLIKEYKQKAGSKLDLMWYDSMTKDGKMDWQNALTKENQSYLVDANMKPVADSMFLNFWWTKKRLASQELLKKSHERAEKLGISPYNLFAGIDVQADGTATPVRWNLFANKQHVPYTSLGLYAPDWTHASSDTVDEFQAKEGALWVNDQNDPSRSIPSTTSTHWPGVSTYAVEQSAITKQPFVTNFSLGNGYNYFIKLEHHHHHH” belongs “failed”; to “MCSSDSLQLHNVFVYGSFQDPDVINVMLDRTPEIVSATLPGFQRFRLKGRLYPCIVPSEKGEVHGKVLMGVTSDELENLDAVEGNEYERVTVGIVREDNSEKMAVKTYMWINKADPDMFGEWNFEEWKRLHKKKFIETFKKIMECKKKPQGQGNDDISHVLREDQ”, “not failed”. As for “MCTIFKVNGKIHIKELISSIVIAEGVGALSGFLSMSNVKNYSNLKKPFFSPPGFIFPIVWVILYFLMAVAAYRIWVIGKEESKDVKKALVLYAVQLLFNFLWSIIFFKFNCYGAAFIELLILLFFILCATFQFHKHDKVAAFLMIPYILWVSFAGILNFAIWFLNRNSST”, the entry is “failed”. To “MDAADCYLEGNADAVEFCPHESYANLLAASTYTLQEGDCPSRSGSVYLFDVGDVEDVGLNLIQKIDTAGVFDIRWSRGGDGGDVALAQADADGCLIVYKIDETESKGTLREVSGKRISSSMCLCLDWDPSSTSIVVGLSDGSASVVSFTDSNLETVQEWKGHDFELWTASFDLNNPNLVYTGSDDCKFSCWDIRDSPADNRVFQNSKVHTMGVCCISSNPSDPYSIFTGSYDETLRVWDTRSVSRPLNETSVSLGGGVWRIKHHPSLSGVVLAACMHNGFALAKVSDGKGEVLESYNKHHSLAYGADWYRGKDQKQSVVATCSFYDRLLRVWMPITDFSTRCS” belongs “failed”; to “MDAETAESLKLLKNISLYTETYGCTYNAGDTEKLMEIARNQGCVPASSAEEADAILINTCVVIDKTEQHMYERLDLYAGKLLFVTGCLPPVAADVLRTRYPKIHIIDPALIHSCYMEVGTAHVGTNAVLQIARGCNGHCTYCITRLARGKLVSFSAEDIVRQAKSIVEAGATEIQLTAQDTSSWGLDRNDGLRLPDLLRQLCAIPGNFMIRIGMANPDTLLPILDDFLDALKDPKIFLFLHIPVQSGSDSVLRLMGRRYTSAQYEEICQRARKAFPEIRISTDYIAGFSGETDEDAAKSAEQIRRTRPGKVNITRFSVRPNTPAAKMKKIPEPIKKQRSRELTDAANEVYDANNEALIGHIMTAVVTEVVKAGSVTARDRTYQNIVIMENLEIGTEITVKITGHRRHYLIGERIVP”, “failed”; to “MDALIMAGGKGTRLKENVEKPILNICEKPMIDYVIDSLLNSKIEKIYVAVSIHTPKTKEYLEKKYRLDRNYNPKIDIICTSGTNYVDDLNECMEFFKEPFLILSSDIPTIKPKVINSIIQDYLFVNNSCNRIESFCVVTKDDDYVGTPSINMGGYIPLGINILTPKHGEQTEILHVIKDIIVNVNTLSDKKLVETLINKVVELEHHHHHH”, “not failed”.
